Data reported in PMC2922993 (Nature chemical biology, 2010).
Non-standard residues stand in square brackets, D forms with d. No end group written: not given here. Lys(Me3) = C[N+](C)(C)CCCC[C@H](N)C(=O)O; Arg(Me2s) = CN=C(NC)NCCC[C@H](N)C(=O)O

Tests used:
[1] = target: T1, inhibitor of growth 2 (ING2) PHD finger; assay: ITC
T1 sequence (Q9H160 whole entry, species assumed, looked up): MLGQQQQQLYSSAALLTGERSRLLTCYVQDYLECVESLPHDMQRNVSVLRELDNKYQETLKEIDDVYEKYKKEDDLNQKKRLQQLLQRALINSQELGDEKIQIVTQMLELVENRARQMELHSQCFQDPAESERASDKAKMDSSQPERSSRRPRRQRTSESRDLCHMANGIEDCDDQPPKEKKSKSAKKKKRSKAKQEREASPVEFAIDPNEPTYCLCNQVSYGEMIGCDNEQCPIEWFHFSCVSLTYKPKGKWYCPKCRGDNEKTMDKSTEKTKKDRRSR

[2] = target: BRAF-HDAC Complex 80 (BHC80)-PHD finger (UniProt Q96BD5 486-543); assay: ITC
BRAF-HDAC Complex 80 (BHC80)-PHD finger, sequence (Q96BD5 486-543, one chain of several): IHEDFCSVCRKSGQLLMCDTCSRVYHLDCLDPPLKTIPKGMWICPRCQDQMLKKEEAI

B1: H3 peptide bearing K4me3 and R2me2s marks (peptide)
chain: A[Arg(Me2s)]T[Lys(Me3)]QTARKSTG
Work on B1 yielded a Kd [1] of 17.3 µM.

B2: H3K4me3 peptide (ITC) (peptide)
chain: ART[Lys(Me3)]QTARKSTG
With B2 the Kd [1] was 0.98 µM.

B3: H3R2me2s- modified peptide (peptide)
chain: A[Arg(Me2s)]TKQTARKSTG
Work on B3 yielded a Kd [2] of 57.2 µM.
